Data: patent US20260167685A1, “NEW MICROPEPTIDE HMBJ AND USE THEREOF” (NANJING ANJI BIOTECHNOLOGY CO., LTD, priority 2023, published 2026)

Key:
Format in all cases: cell-based
[1] = system: human renal proximal tubule cells HK2; test: inhibitory effect on human renal fibrosis cell model (TGFβ1-stimulated, qPCR); conditions: 10 nmol recombinant human TGFβ1, different concentrations of synthetic micropeptide, co-incubation 24 h, qPCR (FIG. 12)
Description: (§1) Compared with the related art, this application has the following beneficial effects: • (1) This application provides a lncRNA and a nucleotide sequence thereof. Through analysis of sequencing data for multiple organ fibroses, it is discovered that the lncRNA molecule ENSG00000272654 is expressed at a low level in the organ fibroses. […] The lncRNA molecule can be used for diagnosis or auxiliary diagnosis and treatment or auxiliary treatment of organ fibrosis, or can be used in preparation of a reagent for diagnosis or auxiliary diagnosis and treatment or auxiliary treatment of organ fibrosis. • (2) This application provides a nucleotide sequence of an open reading frame of the lncRNA. The nucleotide sequence can code new micropeptide HMBJ. […] Then, the extracted total RNA is reverse-transcribed by using a reverse transcription reagent, and then mRNA expressions of gene Col1a1, TGFβ1, and CTGF in the three organ fibrosis cell models are detected by real-time fluorescence quantification PCR. […]
Human renal proximal tubule cells HK2 were cultured in a cell incubator at 37° C. under 5% CO2 until a cell density was 80% or more. […] Then, the cells were resuspended in a complete medium and counted by using a cell counter. […]

[2] = system: human non-small cell lung cancer cells A549; test: inhibitory effect on human pulmonary fibrosis cell model (TGFβ1-stimulated, qPCR); conditions: 10 nmol recombinant human TGFβ1, different concentrations of synthetic micropeptide, co-incubation 24 h, qPCR (FIG. 13)
Description: as §1
Human non-small cell lung cancer cells A549 were cultured in a cell incubator at 37° C. under 5% CO2 until a cell density was 80% or more. […] Then, the cells were resuspended in a complete medium and counted by using a cell counter. […]

[3] = system: human hepatic stellate cells LX-2; test: inhibitory effect on human liver fibrosis cell model (TGFβ1-stimulated, qPCR); conditions: LX-2 cells, 10 nmol recombinant human TGFβ1, different concentrations of synthetic micropeptide, co-incubation 24 h, qPCR (FIG. 11)
Description: as §1
In this example, inhibitory effect of the micropeptide HMBJ on a human liver fibrosis cell model was detected. […] Then, the cells were resuspended in a complete medium and counted by using a cell counter. […]

Measured: inhibitory effect on mRNA expressions of gene Col1a1, TGFβ1, and CTGF

B1: HMBJ: new human endogenous micropeptide of 71 amino acids (SEQ ID NO. 3) coded by lncRNA ENSG00000272654, made by solid-phase synthesis (peptide, listed as Homo sapiens)
chain: MEAKLRVLVPAETGISETHDEHETFSLSLGSHSATQMNGVTFPHVTLLSLLLRAGPLHNLFKCSQLSLAPT
significant inhibitory effect: all assays above
